Where no end group is shown, it is not given here.

In one data set the target is T1, XBP1 (Homo sapiens, UniProt P17861).
T1 construct: made in house
T1 sequence (P17861 70-133 limits assumed): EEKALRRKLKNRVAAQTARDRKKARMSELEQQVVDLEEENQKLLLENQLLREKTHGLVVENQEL
The note with it: native human bZIP binding XBP1; cited from earlier work. The text has this: We chose five human bZIP proteins as targets: X-box binding protein 1 (XBP1), JUN, Activating Transcription Factor (ATF) 3, ATF4 and ATF5. These are proteins for which an interaction partner was designed in prior work, but either the affinity or the specificity of the design left room for improvement. […] For example, XBP1-d1 was composed of heptads from N. vectensis, C. elegans and C. intestinalis proteins, and from previously designed bZIP binders. We also note that our four designs were composed of 24 distinct, non-recurring heptads. Thus, our design al ... || We compared the new designs to designed peptides targeting XBP1 and JUN reported by Grigoryan et al. for which FRET measurements were available. […] It should be noted that XBP1 presents a challenging target because three of its core a positions are occupied by asparagines. A matching asparagi ...

Data set [1] deals with partner bZIP coiled coil (Protein2). Particulars: Protein2 = CI12 (CI), inter; 5000 assigned if Kd >5,000 nM or no binding; cited from earlier work. The procedure: Supplement pcbi.1004046.s020.csv, table | column: Kd || Fig 4 Designed bZIP-binding peptides inhibit interactions of native bZIP dimers. […] The dissociation constants at the indicated temperatures are Kd ≤ 1 nM for FOS-JUN, Kd ≤1 nM for XBP1-CREBZF, and Kd = 60 nM for ATF4-FOS, according to [18]. Fluorescence intensities were measured at both 37°C and 23°C, a ...

Data set [2] concerns the molecule itself. Briefly: FRET or BRET; homodimer Kd of the designed peptide determined by FRET, 23°C; dimer to monomers. On the technique in general: BRET reads energy transfer from a luciferase to a nearby fluorophore.
Data set [3] has as its target T2, Activating Transcription Factor 4 (ATF4) bZIP construct, C-terminally fluoresceinated (human, UniProt P18848 278-351, fluorescein at the C-terminus).
T2 construct: source: previously described, donated by A.W. Reinke [18]
T2 sequence (looked up): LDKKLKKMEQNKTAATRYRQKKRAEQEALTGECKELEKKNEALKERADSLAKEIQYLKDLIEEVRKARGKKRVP
Briefly: FRET or BRET; direct-binding FRET at 37°C; 10 nM fluorescein-labelled bZIP (donor), rhodamine-labelled design (acceptor) titrated 0 to 1 μM; 150 mM KCl, 50 mM potassium phosphate pH 7.4, 0.1% Tween-20, 0.1% BSA. Particulars: both partners purified.

Data set [4] addresses off-target bZIPs of XBP1-d1 (among the 32 C-terminally fluoresceinated human bZIPs tested) (human). The description is as above.
The target in data set [5] is T3, X-box binding protein 1 (XBP1) bZIP construct, C-terminally fluoresceinated (human, UniProt P17861 70-133, fluorescein at the C-terminus).
T3 construct: source: previously described, donated by A.W. Reinke [18]
T3 sequence (looked up): T1 sequence (P17861 70-133 limits assumed)
Described as above. Particulars: both partners purified.

Another data set deals with T4, ATF4 (Homo sapiens, UniProt P18848).
T4 construct: made in house
T4 sequence (P18848 278-341 limits assumed): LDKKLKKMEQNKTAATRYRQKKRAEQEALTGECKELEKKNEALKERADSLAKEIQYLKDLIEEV
The note with it: native human bZIP binding ATF4; cited from earlier work. The text has this: For example, XBP1-d1 was composed of heptads from N. vectensis, C. elegans and C. intestinalis proteins, and from previously designed bZIP binders. We also note that our four designs were composed of 24 distinct, non-recurring heptads. Thus, our design al ...

The target in a further data set is JUN (Homo sapiens, UniProt P05412). More on the design: made in house. Particulars: native human bZIP binding JUN; cited from earlier work. The text has this:
For most bZIP pairs, binding of the N-terminally labeled designed peptide to a C-terminally labeled target gave very little signal, and such curves could rarely be fit to provide Kd values (S9–S12 Tables). In a few cases where interactions could be quantified with both N- and C-terminal dye labeling, we observed that the affinity of N-terminally labeled designs for C-terminally labeled targets was somewhat weaker than the affinity of C-terminally labeled designs (S5–S12 Tables). Enhanced affinities attributable to dye interactions have been reported previously. […] For example, XBP1-d1 was composed of heptads from N. vectensis, C. elegans and C. intestinalis proteins, and from previously designed bZIP binders. We also note that our four designs were composed of 24 distinct, non-recurring heptads. Thus, our design al ... || We compared the new designs to designed peptides targeting XBP1 and JUN reported by Grigoryan et al. for which FRET measurements were available. […] It should be noted that XBP1 presents a challenging target because three of its core a positions are occupied by asparagines. A matching asparagi ...

In data set [6] the target is T5, JUN bZIP construct, C-terminally fluoresceinated (human, UniProt P05412 252-315, fluorescein at the C-terminus).
T5 construct: source: previously described, donated by A.W. Reinke [18]
Briefly: FRET or BRET; direct-binding FRET at 37°C; 10 nM fluorescein-labelled bZIP (donor), rhodamine-labelled design (acceptor) titrated 0 to 1 μM; 150 mM KCl, 50 mM potassium phosphate pH 7.4, 0.1% Tween-20, 0.1% BSA. The note with it: both partners purified.

Chain of JUN (P05412 252-315 limits assumed): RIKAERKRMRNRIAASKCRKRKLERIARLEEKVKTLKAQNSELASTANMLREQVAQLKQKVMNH
T5 sequence (P05412 252-315): as the sequence (P05412 252-315 limits assumed) above

By Kd is commonly meant the constant that tells how readily two partners part at equilibrium. In the case of ATF6: native human bZIP coiled coil, the values for the Kd (in the data set with XBP1; in [1]) were 1 nM and 5000 nM, respectively.

B1: ATF4-d1, rhodamine-labelled at the C-terminus (designed binder)
chain: GESKEYKKGSGSNQIKTLRTRLSKLRKDNLQLEKDIANLERKAKDLRAEKEQLEYELGC(Rhodamine Red C2‑maleimide)
notes: solubility linker after the His tag; added at the C-terminus for labelling; also used for the homodimer row; source: E. coli RP3098, purified (Ni-NTA under denaturing conditions, reverse-phase HPLC)
For B1, the Kd in [2] amounted to 36.3 nM; in [3], 9.3 ± 2.3 nM.

B2: XBP1-d1, rhodamine-labelled at the C-terminus (designed binder)
chain: GESKEYKKGSGSEREAQLENRVAHLKEKNQELKAQNLHLKEALSEAQNRNQELKNDAGC(Rhodamine Red C2‑maleimide)
notes: solubility linker after the His tag; added at the C-terminus for labelling; built from heptads of native and previously designed bZIPs; source: E. coli RP3098, purified (Ni-NTA under denaturing conditions, reverse-phase HPLC)
Turning to B2, the results for the Kd in [4] and in data set [5] were above 5000 nM and 172 ± 65 nM, respectively.

B3: ATF6B: native human bZIP coiled coil (protein)
chain: MAELMLLSEIADPTRFFTDNLLSPEDWGLQNSTLYSGLDEVAEEQTQLFRCPEQDVPFDGSSLDVGMDVSPSEPPWELLPIFPDLQVKSEPSSPCSSSSLSSESSRLSTEPSSEALGVGEVLHVKTESLAPPLCLLGDDPTSSFETVQINVIPTSDDSSDVQTKIEPVSPCSSVNSEASLLSADSSSQAFIGEEVLEVKTESLSPSGCLLWDVPAPSLGAVQISMGPSLDGSSGKALPTRKPPLQPKPVVLTTVPMPSRAVPPSTTVLLQSLVQPPPVSPVVLIQGAIRVQPEGPAPSLPRPERKSIVPAPMPGNSCPPEVDAKLLKRQQRMIKNRESACQSRRKKKEYLQGLEARLQAVLADNQQLRRENAALRRRLEALLAENSELKLGSGNRKVVCIMVFLLFIAFNFGPVSISEPPSAPISPRMNKGEPQPRRHLLGFSEQEPVQGVEPLQGSSQGPKEPQPSPTDQPSFSNLTAFPGGAKELLLRDLDQLFLSSDCRHFNRTESLRLADELSGWVQRHQRGRRKIPQRAQERQKSQPRKKSPPVKAVPIQPPGPPERDSVGQLQLYRHPDRSQPAFLDAIDRREDTFYVVSFRRDHLLLPAISHNKTSRPKMSLVMPAMAPNETLSGRGAPGDYEEMMQIECEVMDTRVIHIKTSTVPPSLRKQPSPTPGNATGGPLPVSAASQAHQASHQPLYLNHP
modifications: fluorescein at the C-terminus (FRET donor) or TAMRA (FRET acceptor), by assay
notes: native human bZIP coiled coil
With B3, in the data set with ATF4, the Kd is at least 5000 nM.

B4: FOS: native human bZIP coiled coil (protein)
chain: EEKRRIRRERNKMAAAKCRNRRRELTDTLQAETDQLEDEKSALQTEIANLLKEKEKLEFILAAH
modifications: C-terminal TAMRA when used as FRET acceptor
With B4, the Kd with JUN is 1 nM.

B5: JUN-d1, rhodamine-labelled at the C-terminus (designed binder)
chain: GESKEYKKGSGSSIAATLEKEEANLEKMNKKLAAEIESLLKEKDKLESVLNYHEGC(Rhodamine Red C2‑maleimide)
notes: solubility linker after the His tag; added at the C-terminus for labelling; source: E. coli RP3098, purified (Ni-NTA under denaturing conditions, reverse-phase HPLC)
In turn, B5 returned a Kd in data set [6] of 5.8 ± 0.7 nM.

The values above are taken from paper PMC4335062, “Data-Driven Prediction and Design of bZIP Coiled-Coil Interactions” (PLoS Computational Biology, 2015).
